{
  "source": "paper PMC12258035",
  "about": "“AcABI5a integrates abscisic acid signaling to developmentally modulate fruit ascorbic acid biosynthesis in kiwifruit”",
  "key": {"AcABI5a-His [1]": {"molecular_target": "T1, AcABI5a-His (Actinidia chinensis? (cv. 'Donghong'), UniProt A0A2R6QW13 1-413)", "T1 sequence": "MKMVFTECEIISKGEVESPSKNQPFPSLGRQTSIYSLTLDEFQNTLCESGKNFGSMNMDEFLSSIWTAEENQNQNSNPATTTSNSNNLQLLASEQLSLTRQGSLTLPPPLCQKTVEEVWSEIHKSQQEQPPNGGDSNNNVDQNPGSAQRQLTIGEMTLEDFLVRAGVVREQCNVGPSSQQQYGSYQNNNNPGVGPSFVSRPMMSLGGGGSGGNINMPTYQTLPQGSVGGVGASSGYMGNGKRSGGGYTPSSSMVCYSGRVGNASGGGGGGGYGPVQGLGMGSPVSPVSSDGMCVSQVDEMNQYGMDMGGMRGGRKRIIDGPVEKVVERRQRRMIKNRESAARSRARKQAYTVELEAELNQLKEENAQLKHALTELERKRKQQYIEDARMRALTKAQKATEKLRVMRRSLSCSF", "assay": "EMSA; EMSA in polyacrylamide gels with FAM probes; buffer, salt, pH and temperature not stated (refers to Hou et al. [71])", "settings": "protein: recombinant; tags: 6xHis at N- and C-terminus (pET-32a); fusion 65 kDa; chain copies: 2; label: FAM (on F strand); blunt"}, "AcABI5a-His [2]": {"molecular_target": "T1, AcABI5a-His", "assay": "EMSA; unlabeled competitor weakens the band; EMSA in polyacrylamide gels with FAM probes; buffer, salt, pH and temperature not stated (refers to Hou et al. [71])", "settings": "protein: recombinant; tags: 6xHis at N- and C-terminus (pET-32a); fusion 65 kDa; chain copies: 2; label: FAM (on F strand); blunt"}},
  "data": [
    {"binder": "AcABI5a promoter mutant probe (dsDNA) DNA 1: GCACCCTTGTAAAAAAAAAATTGTAAGA DNA 2: TCTTACAATTTTTTTTTTACAAGGGTGC", "values": [
      {"measurement": "binding result", "setting": "AcABI5a-His [1]", "value": "no binding"}
    ]},
    {"binder": "AcMYBS1 promoter G-box probe (dsDNA) DNA 1: ATATTTTGTTATACGTGTTAGAAGTTCA DNA 2: TGAACTTCTAACACGTATAACAAAATAT", "values": [
      {"measurement": "binding result", "setting": "AcABI5a-His [2]", "value": "binds"}
    ]},
    {"binder": "AcABI5a promoter G-box probe (dsDNA) DNA 1: GCACCCTTGTAGACGTGAAATTGTAAGA DNA 2: TCTTACAATTTCACGTCTACAAGGGTGC", "values": [
      {"measurement": "binding result", "setting": "AcABI5a-His [2]", "value": "binds"}
    ]},
    {"binder": "AcMYBS1 mutant probe (dsDNA) DNA 1: ATATTTTGTTAAAAAAATTAGAAGTTCA DNA 2: TGAACTTCTAATTTTTTTAACAAAATAT", "values": [
      {"measurement": "binding result", "setting": "AcABI5a-His [1]", "value": "no binding"}
    ]}
  ]
}
